The target in test [1] is human platelet integrin alphaIIb beta3, on human platelets (human) (UniProt P08514). In words: cell-based or functional assay.
Test [2] addresses murine platelet glycoprotein Ib alpha (GPIb alpha), on mouse platelets (mouse) (UniProt O35930). In words: cell-based or functional assay.
Test [3] deals with human platelet glycoprotein Ib alpha (GPIb alpha), on human platelets (human) (UniProt P07359). In words: cell-based or functional assay.
For test [4] the target is unchanged. In words: human whole blood perfused over surface-bound protein, parallel-plate flow chamber, 1600 s^-1.
The target is the same in test [5].

Sequence of human platelet glycoprotein Ib alpha (GPIb alpha), on human platelets (human) (P07359 17-652): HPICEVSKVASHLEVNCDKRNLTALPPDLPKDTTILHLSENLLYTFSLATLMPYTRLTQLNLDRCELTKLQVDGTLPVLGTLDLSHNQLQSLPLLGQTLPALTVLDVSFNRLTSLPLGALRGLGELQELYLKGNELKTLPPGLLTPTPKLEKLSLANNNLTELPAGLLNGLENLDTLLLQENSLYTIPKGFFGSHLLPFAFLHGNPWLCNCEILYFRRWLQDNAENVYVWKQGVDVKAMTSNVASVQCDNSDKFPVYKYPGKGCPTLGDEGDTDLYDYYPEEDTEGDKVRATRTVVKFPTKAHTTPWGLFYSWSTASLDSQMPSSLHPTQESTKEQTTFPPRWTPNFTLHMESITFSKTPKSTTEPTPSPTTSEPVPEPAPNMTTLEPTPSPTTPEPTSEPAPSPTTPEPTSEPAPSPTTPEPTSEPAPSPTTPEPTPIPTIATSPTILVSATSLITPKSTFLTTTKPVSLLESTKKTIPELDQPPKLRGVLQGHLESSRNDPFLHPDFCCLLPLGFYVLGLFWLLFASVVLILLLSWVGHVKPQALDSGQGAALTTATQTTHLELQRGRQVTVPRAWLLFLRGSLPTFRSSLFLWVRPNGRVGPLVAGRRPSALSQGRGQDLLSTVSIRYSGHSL
Sequence of murine platelet glycoprotein Ib alpha (GPIb alpha), on mouse platelets (mouse) (O35930 17-734): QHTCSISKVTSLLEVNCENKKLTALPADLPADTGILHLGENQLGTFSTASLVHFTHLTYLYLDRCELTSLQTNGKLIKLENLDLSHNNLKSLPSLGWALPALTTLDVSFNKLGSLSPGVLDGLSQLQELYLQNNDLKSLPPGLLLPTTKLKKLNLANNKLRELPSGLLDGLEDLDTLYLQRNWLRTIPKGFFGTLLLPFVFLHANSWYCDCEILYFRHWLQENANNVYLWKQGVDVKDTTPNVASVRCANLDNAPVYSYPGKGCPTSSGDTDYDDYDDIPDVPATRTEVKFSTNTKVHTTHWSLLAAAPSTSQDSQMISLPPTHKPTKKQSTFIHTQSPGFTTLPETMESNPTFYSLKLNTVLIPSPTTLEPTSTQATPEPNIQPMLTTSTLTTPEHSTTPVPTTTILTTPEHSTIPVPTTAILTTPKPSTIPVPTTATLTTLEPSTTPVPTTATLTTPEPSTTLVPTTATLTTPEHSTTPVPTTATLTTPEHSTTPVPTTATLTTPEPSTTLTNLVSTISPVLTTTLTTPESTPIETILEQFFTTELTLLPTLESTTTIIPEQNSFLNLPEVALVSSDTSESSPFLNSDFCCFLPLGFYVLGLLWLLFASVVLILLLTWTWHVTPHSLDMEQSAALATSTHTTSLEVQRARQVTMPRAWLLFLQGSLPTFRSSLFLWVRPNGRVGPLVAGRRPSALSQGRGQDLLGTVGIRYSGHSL
Sequence of human platelet integrin alphaIIb beta3, on human platelets (human) (P08514 32-1039, chain 1 of 2): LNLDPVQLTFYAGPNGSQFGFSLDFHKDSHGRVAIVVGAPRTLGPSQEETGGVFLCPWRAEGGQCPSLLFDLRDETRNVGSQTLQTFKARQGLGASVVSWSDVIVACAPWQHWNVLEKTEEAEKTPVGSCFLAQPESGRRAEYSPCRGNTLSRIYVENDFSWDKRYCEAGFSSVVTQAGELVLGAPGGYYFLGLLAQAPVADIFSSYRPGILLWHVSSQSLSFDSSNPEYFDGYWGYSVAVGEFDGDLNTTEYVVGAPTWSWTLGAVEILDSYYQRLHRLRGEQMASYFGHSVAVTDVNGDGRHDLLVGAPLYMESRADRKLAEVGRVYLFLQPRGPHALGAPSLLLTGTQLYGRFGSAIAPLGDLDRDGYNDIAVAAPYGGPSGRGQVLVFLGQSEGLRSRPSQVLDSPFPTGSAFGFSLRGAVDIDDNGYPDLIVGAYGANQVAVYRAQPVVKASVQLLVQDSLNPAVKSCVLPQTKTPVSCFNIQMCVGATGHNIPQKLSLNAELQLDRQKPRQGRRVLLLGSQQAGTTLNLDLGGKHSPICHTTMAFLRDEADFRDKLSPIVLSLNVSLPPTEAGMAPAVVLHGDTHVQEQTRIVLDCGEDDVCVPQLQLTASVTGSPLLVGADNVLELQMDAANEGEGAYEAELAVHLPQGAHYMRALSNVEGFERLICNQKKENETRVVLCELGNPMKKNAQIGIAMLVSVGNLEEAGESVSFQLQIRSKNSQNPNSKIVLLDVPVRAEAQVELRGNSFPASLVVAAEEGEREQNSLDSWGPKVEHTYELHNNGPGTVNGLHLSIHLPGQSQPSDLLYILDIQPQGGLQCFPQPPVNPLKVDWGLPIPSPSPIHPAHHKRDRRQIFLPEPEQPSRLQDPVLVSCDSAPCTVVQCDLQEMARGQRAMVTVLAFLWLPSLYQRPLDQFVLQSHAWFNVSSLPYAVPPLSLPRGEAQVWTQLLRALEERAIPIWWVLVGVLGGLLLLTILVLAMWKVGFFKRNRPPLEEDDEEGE
Sequence of human platelet integrin alphaIIb beta3, on human platelets (human) (P05106 27-788, chain 2 of 2, further chain): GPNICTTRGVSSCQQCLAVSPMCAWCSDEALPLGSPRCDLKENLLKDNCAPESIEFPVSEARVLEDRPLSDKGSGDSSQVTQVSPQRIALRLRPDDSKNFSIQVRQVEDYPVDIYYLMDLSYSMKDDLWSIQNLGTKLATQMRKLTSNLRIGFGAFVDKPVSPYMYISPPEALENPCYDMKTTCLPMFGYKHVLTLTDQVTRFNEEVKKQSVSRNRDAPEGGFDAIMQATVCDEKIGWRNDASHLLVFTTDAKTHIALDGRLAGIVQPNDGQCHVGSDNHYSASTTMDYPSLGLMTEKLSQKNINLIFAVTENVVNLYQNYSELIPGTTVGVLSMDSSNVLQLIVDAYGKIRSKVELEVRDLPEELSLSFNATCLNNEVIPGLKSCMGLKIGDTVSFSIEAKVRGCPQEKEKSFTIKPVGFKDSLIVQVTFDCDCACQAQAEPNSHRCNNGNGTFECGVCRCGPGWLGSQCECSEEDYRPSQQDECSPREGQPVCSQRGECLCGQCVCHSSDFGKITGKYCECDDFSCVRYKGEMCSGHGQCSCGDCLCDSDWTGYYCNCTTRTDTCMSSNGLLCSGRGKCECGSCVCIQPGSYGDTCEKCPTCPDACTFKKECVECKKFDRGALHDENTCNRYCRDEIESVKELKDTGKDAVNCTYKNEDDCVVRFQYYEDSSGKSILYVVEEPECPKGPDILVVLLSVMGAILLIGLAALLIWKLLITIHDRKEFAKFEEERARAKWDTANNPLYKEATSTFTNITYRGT

In test [1], “function-blocking monoclonal antibody 7E3 (anti-human alphaIIb beta3)” registered a thrombus size in VWF 1326R>H mice after treatment of human platelets with mAb 7E3 of 529 µm^2.

In test [2], “murine plasma VWF, wild type, Q8CIZ8 764-2813” returned a ristocetin-induced platelet aggregation (RIPA), murine PRP, ristocetin ≧2.5 mg/ml of 30%. The substance further yielded a share of human platelets in total thrombus area in WT mice in test [3] of 5.7%. The substance further gave a platelet deposition, % of same-species control in test [4] of 10%.

Turning to “murine plasma VWF with the 1326R>H mutation (from homozygous VWF 1326R>H knock-in mice), Q8CIZ8 764-2813”, in test [2], the thrombi formed on collagen-coated cover slips by whole blood of knock-in animals, 1600 s^-1, reduction against WT is 70% and the thrombus formation by whole blood of mutant mice over surface-immobilized collagen in vitro, reduction against WT is 80%. Also, in test [3], the average thrombus size at laser-injured arterioles of homozygous VWF 1326R>H mice infused with human platelets worked out at 8950 µm^2, the share of human cells in thrombi at laser-injured arterioles of homozygous VWF 1326R>H mice is 91.7% and the translocation velocity of human platelets on immobilized plasma VWF amounted to 3.5 µm/sec.

“function-blocking monoclonal antibody 6D1 (anti-human GPIb alpha)”: the thrombus size in VWF 1326R>H mice after pre-treatment of human platelets with mAb 6D1 in test [3] is 265 µm^2. Also, in test [5], the human platelet accumulation / mm2 on surface-immobilized murine plasma VWF 1326R>H at 1600 s^-1, human blood treated with mAb 6D1 is 0 / mm2.

Values taken from US20090202429A1.
